Measured values as given in patent CN113150157A.

Legend:
[1] = target: 人成纤维细胞生长因子2(FGF2) (human) (UniProt P09038); test: sandwich chemiluminescence immunoassay, AntiVEGF_C capture and AntiVEGF_N-HRP detection, FGF2 at 20μg/ml (specificity test)
[2] = target: 人成纤维细胞生长因子2(FGF2) (human) (UniProt P09038); test: sandwich chemiluminescence immunoassay, AntiVEGF_C capture and AntiVEGF_N-HRP detection, FGF2 at 20μg/ml; apparent VEGF concentration
[3] = target: 表皮生长因子(EGF) (UniProt P01133); test: sandwich chemiluminescence immunoassay, AntiVEGF_C capture and AntiVEGF_N-HRP detection, EGF at 30ng/ml; apparent VEGF concentration
Sequence of UniProt P01133 (P01133 971-1023 limits assumed): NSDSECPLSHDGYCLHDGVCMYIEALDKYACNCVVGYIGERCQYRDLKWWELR

[4] = target: 表皮生长因子(EGF) (UniProt P01133); test: sandwich chemiluminescence immunoassay, AntiVEGF_C capture and AntiVEGF_N-HRP detection, EGF at 30ng/ml (specificity test)

Sequence of UniProt P09038 (P09038 143-288 limits assumed): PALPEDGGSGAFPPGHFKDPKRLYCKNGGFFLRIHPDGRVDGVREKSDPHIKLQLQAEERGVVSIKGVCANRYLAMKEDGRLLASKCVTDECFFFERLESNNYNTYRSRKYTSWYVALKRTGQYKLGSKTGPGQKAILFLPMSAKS

B1: 单克隆抗体AntiVEGF_C (antibody, V domains shown)
VH: EVQLVESGGGLVQPGGSRKLSCAASGFTFSSFGMHWVRQAPEKGLEWVAFINSDSSAFYYADTVQDRFTISRDNPKNTLFLQMTSLRSEDTAMYYCARAGNHYYGGAYWGQGTLVTVSA
VL: QIVLSQSPAILSASPGEKVTMTCRASSSVSYMHWYQQRPGSSPKPWIYDTSNLASGVPVRFSGSGSGTSYSLTISRVEVEDAATYYCQQWSRHPPITFGSGTKLEIK
In the case of B1, the 发光值 [1] is reported as 14900 RLU, the 浓度值 (检测表观值) [2] is reported as 11.3 pg/mL and the 浓度值 (检测表观值) [3] is reported as 6.57 pg/mL. It also gave a 发光值 [4] of 8770 RLU.
